Laboratory results as given in paper PMC5869024.
pKd: −log10 of the molar value. Where two headings read alike, the source gives them in different places.

Legend:
[1] = target: CXCR1 extracellular loop peptide two linked extracellular loops (Homo sapiens) (UniProt P25024); conditions: cited from earlier work
ND-CXCR1(1–38) [2] = target: ND-CXCR1(1–38) (UniProt P25024); test: ITC
[3] = target: 1TM-CXCR1(1–72) reconstituted in nanodiscs (UniProt P25024); test: ITC
ND-CXCR1(1–38) [4] = target: ND-CXCR1(1–38) (UniProt P25024); test: ITC; remark: listed apart in the source

Chain of ND-CXCR1(1–38) (P25024 1-38 C30S): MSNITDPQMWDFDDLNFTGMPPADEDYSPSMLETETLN
Chain of 1TM-CXCR1(1–72) reconstituted in nanodiscs (P25024 1-72 C30S): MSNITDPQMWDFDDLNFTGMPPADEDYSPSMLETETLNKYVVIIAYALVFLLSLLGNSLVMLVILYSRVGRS
Chain of IL-8 (P10145 28-99): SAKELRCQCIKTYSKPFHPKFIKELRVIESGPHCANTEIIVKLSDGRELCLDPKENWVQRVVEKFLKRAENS
Chain of CXCR1 extracellular loop peptide two linked extracellular loops (Homo sapiens) (P25024 whole entry): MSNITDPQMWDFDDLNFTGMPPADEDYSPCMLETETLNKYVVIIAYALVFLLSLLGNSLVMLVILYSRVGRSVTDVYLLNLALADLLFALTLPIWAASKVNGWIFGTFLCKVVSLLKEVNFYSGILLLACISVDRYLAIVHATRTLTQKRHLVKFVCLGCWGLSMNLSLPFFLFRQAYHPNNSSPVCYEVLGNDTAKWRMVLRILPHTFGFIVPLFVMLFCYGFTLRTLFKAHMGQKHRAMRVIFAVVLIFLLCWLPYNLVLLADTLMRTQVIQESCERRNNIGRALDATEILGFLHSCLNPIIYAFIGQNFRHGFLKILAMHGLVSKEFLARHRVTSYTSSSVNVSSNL

Substance: IL-8 (from UniProt P10145)
- pKd [1]: 6.30

Substance: monomeric Interleukin-8 IL-8(1–66) (ligand)
- pKd (ND-CXCR1(1–38) [2]): 5.49
- pKd [3]: 4.90
- dH [3]: -3.1 kcal/mol
- pKd (ND-CXCR1(1–38) [4]): 5.46
- dH (ND-CXCR1(1–38) [4]): -3.2 kcal/mol
